According to patent publication US20200276330A1 (NANOMAB TECHNOLOGY, published 2020):
Substitutions are numbered along the chain they refer to. Each block holds one binder with its values, some of them ahead of it.

Legend:
[1] = target: T1, human PD-L1 full-length protein on transiently transfected HEK293F cells (human, UniProt Q9NZQ7 19-290); test: flow cytometry competition: 10 ug nanobody + 5 ug hPD-1-Fc-Biotin on HEK293F cells expressing human PD-L1, SA-PE
T1 construct: whole, on cells
Procedure: (1) 1×10⁶ HEK293F cells transiently transfected to express human PD-L1 full-length protein were collected and resuspended in 0.5% BSA-PBS buffer. And 10 μg of anti-PD-L1 nanobodies were added, and a positive control, a negative control and blank group (PBS) were set up. All samples were incubated with 5 μg of hPD-1-Fc-Biotin for 20 minutes at 4° C.
(2) The cells were washed twice by PBS and incubated with SA-PE from eBioscience for 20 minutes at 4° C. Cells were washed again with PBS twice and were detected by flow cytometry.

[2] = target: T2, PD-L1 on HCC827 cells (high PD-L1 expression) and A549 cells (low PD-L1 expression) (UniProt Q9NZQ7 19-290, limits assumed); test: flow cytometry on HCC827 cells (high PD-L1 expression), anti-HA Alexa Fluor 488
T2 construct: whole, on cells; HCC827 and A549 are known human lung cancer lines

[3] = target: T3, PD-L1 (coated on the ELISA plate) (UniProt Q9NZQ7 19-238, limits assumed); test: ELISA with gradient dilution of nanobody on coated PD-L1
T3 construct: also called B7-H1; CD274
Procedure: (1) The PD-L1 was coated on the plate, and IgG and NaHCO₃ (100 mM, pH8.2) were used as blank controls. All were incubated overnight at 4° C.
(3) The purified nanobodies were diluted, and reacted with coated PD-L1, IgG and NaHCO₃ at room temperature for 1 hour.

[4] = target: T2, PD-L1 on HCC827 cells (high PD-L1 …); test: flow cytometry on A549 cells (low PD-L1 expression), anti-HA Alexa Fluor 488

T2 sequence (Q9NZQ7 19-290 limits assumed): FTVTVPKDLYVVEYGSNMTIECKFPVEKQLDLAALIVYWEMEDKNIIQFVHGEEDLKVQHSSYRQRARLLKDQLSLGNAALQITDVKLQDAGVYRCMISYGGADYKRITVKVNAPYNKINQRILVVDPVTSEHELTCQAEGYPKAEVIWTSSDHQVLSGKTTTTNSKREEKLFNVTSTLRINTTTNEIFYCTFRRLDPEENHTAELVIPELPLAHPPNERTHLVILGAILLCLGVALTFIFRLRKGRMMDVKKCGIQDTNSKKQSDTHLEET
T1 sequence (Q9NZQ7 19-290): as the sequence (Q9NZQ7 19-290 limits assumed) above
T3 sequence (Q9NZQ7 19-238 limits assumed): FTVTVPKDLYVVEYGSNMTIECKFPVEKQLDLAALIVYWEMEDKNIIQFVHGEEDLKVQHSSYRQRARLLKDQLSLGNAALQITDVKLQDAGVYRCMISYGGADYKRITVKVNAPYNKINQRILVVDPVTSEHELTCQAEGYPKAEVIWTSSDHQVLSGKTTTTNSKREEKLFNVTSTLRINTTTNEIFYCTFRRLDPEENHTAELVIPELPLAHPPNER

PD-1/PD-L1 Inhibitory effect [1]: 19.3% | positive rate, HCC827 [2]: 92.8% | Kd [3]: 1.62 nM | positive rate, A549 [4]: 32.6%
B1: Nanobody No. 2 (VHH)
VHH: QVQLQESGGGSVQAGGSLRLSCAASGYTYSSDGMGWFRQTPGKEREGVAAISPTGRRTEYADSVKGRFTISRDNNKNMLSLQMNSLKPEDTGMYYCAREGSWSFSLANSAVRSWGQGTQVTVSS
notes: Expressed in E. coli WK6 and purified on a nickel column; not shown: HA and His tags (implied by anti-HA detection and nickel column)

PD-1/PD-L1 Inhibitory effect [1]: 19.3% | positive rate, HCC827 [2]: 88.1% | Kd [3]: 7.96 nM | positive rate, A549 [4]: 11.5%
B2: Nanobody No. 1 (VHH)
VHH: QVQLQESGGGSVQTGGSLRLSCAASTSIYSNNYMAWFSQAPGKGREGVAAVYIDDGRPYYADSVKGRFTISLDSAKNTVYLQMNRLKPEDTAMYYCAAAPGPLSHNYWYTSANYDYWGQGTQVTVSS
notes: as for B1

PD-1/PD-L1 Inhibitory effect [1]: 19.2% | positive rate, HCC827 [2]: 66.5% | Kd [3]: 4.46 nM | positive rate, A549 [4]: 13.5%
B3: Nanobody No. 3 (VHH)
VHH: B2 VHH with A23T, A40S, I53M, V79M, R85S, H105R
notes: as for B1
